Data reported in patent publication US20250019450A1 (DIAGONAL THERAPEUTICS, published 2025).

B1: DGL407 (bispecific antibody, human IgG1, kappa)
heavy 1: not shown
heavy 2: QVQLVESGGGLVRPGGSLRLSCAASGFTFSSNGMHWFRQAPGKGLEWVSSIGSGGTSIYYADSVKGRFTISRDNAKNTLYLQMNSLKSDDTAVYYCSKEVTGATRGQGTQVTVEPKSSDKTHTCPPCPAPEAAGAPSVFLFPPKPKDTLMISRTPEVTCVVVDVSHEDPEVKFNWYVDGVEVHNAKTKPREEQYNSTYRVVSVLTVLHQDWLNGKEYKCKVSNKALPAPIEKTISKAKGQPREPQVCTLPPSRDELTKNQVSLSCAVKGFYPSDIAVEWESNGQPENNYKTTPPVLDSDGSFFLVSKLTVDKSRWQQGNVFSCSVMHEALHNRFTQKSLSLSPG
light: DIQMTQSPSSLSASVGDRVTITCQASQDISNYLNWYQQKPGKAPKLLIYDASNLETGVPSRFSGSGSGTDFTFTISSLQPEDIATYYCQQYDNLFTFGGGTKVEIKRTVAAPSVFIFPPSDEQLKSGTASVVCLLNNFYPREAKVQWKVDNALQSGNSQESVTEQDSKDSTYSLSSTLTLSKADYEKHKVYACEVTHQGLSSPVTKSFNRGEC
B2: DGL398 (bispecific antibody, human IgG1, kappa)
heavy 1: not shown
heavy 2: QVQLVESGGGLVQAGGSLRLSCAASGRTFSSYAMGWFRQAPGKEREFVSAISWSGLSTYYVESVQGRFTISRDNAKNTVYLQMNSLKPEDTAVYYCAASRIYTNYVARSYEYDDWGQGTQVTVEPKSSDKTHTCPPCPAPEAAGAPSVFLFPPKPKDTLMISRTPEVTCVVVDVSHEDPEVKFNWYVDGVEVHNAKTKPREEQYNSTYRVVSVLTVLHQDWLNGKEYKCKVSNKALPAPIEKTISKAKGQPREPQVCTLPPSRDELTKNQVSLSCAVKGFYPSDIAVEWESNGQPENNYKTTPPVLDSDGSFFLVSKLTVDKSRWQQGNVFSCSVMHEALHNRFTQKSLSLSPG
light: DIQLTQSPSFLSASVGDRVTITCRASQGISSYLAWYQQQPGKPPKLLIYAASTLHSGVPSRFSGSGSGTEFTLTISSLQPEDFATYYCQQLNRYPYTCGQGTKLEIKRTVAAPSVFIFPPSDEQLKSGTASVVCLLNNFYPREAKVQWKVDNALQSGNSQESVTEQDSKDSTYSLSSTLTLSKADYEKHKVYACEVTHQGLSSPVTKSFNRGEC
B3: DGL408 (bispecific antibody, human IgG1, kappa)
heavy 1: not shown
heavy 2: QVQLVESGGGLVQPGGSLRLSCAASGFTFSNYAMSWVRQAPGKGLEWVSAINSDGTSTSYADSVKGQFTISRDNAKNTLYLQMNSLKPEDTAVYYCTKWEGDTDSDYKFKDYWGQGTQVTVEPKSSDKTHTCPPCPAPEAAGAPSVFLFPPKPKDTLMISRTPEVTCVVVDVSHEDPEVKFNWYVDGVEVHNAKTKPREEQYNSTYRVVSVLTVLHQDWLNGKEYKCKVSNKALPAPIEKTISKAKGQPREPQVCTLPPSRDELTKNQVSLSCAVKGFYPSDIAVEWESNGQPENNYKTTPPVLDSDGSFFLVSKLTVDKSRWQQGNVFSCSVMHEALHNRFTQKSLSLSPG
light: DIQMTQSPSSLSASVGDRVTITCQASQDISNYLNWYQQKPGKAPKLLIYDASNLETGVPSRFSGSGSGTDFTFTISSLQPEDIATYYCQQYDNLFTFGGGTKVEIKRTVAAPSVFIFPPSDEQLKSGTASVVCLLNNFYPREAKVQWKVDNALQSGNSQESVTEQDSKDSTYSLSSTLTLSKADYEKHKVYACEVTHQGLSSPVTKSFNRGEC
B4: DGL465 (bispecific antibody, V domains shown)
V domain 1: QVQLVESGGGLVQAGGSLRLSCAASGRAFSRYSMGWFRQAPGKEREFVAANYWSNGWTDYADTVKGRFSISRDNAKNTVYLQMNSLKPEDTAVYYCAGRSSSIPSADVVGYDYWGQGTQVTVEP
V domain 2: QVQLVESGGGLVQPGGSLRLSCAASGFTFEPYDMSWFRQAPGKGPEWVSAIDKGGGAGATYYADSVKGRFTISRDNAKKTLYLQMKSLKPEDTAVYYCAITAGPYSDSTPRVAYRGEGTQVTVEP
B5: DGL571 (bispecific antibody, V domains shown)
V domain 1: QVQLVESGGGLVQAGGSLRLSCAASRSISSFNEMAWYRQAPGEQRELVATIVSTVGFTNYADSVKGRFTISRDNAKNTVYLQMNSLKAEDTAVYYCNARRISTDYWGQGTQVTVEP
V domain 2: QVQLVESGGGLVQPGGSLRLSCAASGFTFSNYAMSWIRQGPERGFEWVSRINSGGGTTSYADSVKGRFTISRDNAKNTLYLQMNSLKPEDTAVYYCAKHSHPDYSSNYYRPGQGTQVTVEP
B6: DGL545 (bispecific antibody, V domains shown)
V domain 1: QVQLVESGGGAVQAGGSLRLSCAASGLTSRHYVMAWFRQAPGIEREFVASIWWGGSTYYADSVKDRFTISRDNAENTVYLQMNSLKPEDTAVYRCAVGTKIGTMGPRYDYWGQGTQVTVEP
V domain 2: QVQLVESGGGLVQAGGSLRLSCAASGRTFSSYAMGWFRQAPGKEREFVSAISWSGLSTYYVESVQGRFTISRDNAKNTVYLQMNSLKPEDTAVYYCAASRIYTNYVARSYEYDDWGQGTQVTVEP
B7: DGL524 (bispecific antibody, V domains shown)
V domain 1: EVQLVESGGGLVQPGGSLRLFCAASRSIFNINIMGWYRQAPGKQREWLASITSGGSTFYADSVKDRFTISRDSVKNTVYLQMNSLKPEDTAAYYCNRYRSVPLNTVYPWGQGTLVTVEP
V domain 2: QVQLVESGGGLVQAGGSLRLSCAASGRIFSAYRMGWFRQAPGKEREFVAGITWRGQTTYYAASVKGRFTISKDNAKKTVYLQMNSLKPEETAVYYCAVETNGLGRWDRPSEYDYWGQGTQVTVEP
B8: DGL584 (bispecific antibody, V domains shown)
V domain 1: QVQLQESGGGLVQAGGSLRLSCAASGSIASINAMGWYRQAPGKQRDFVARIQLSGSTNYAHSVRGRFTISRDNAKNTVYLQMNNLKPEDTAVYVCAASNTGSLYGLRNYWGQGTQVTVEP
V domain 2: QVQLVESGGGLVQPGGSLRLSCAASGFTFSSKAMHWFRQAPGKGLEWVSSINSGGAITYYKDSVKGRFTVSRDNAKNILYLEMNSLKPEDTALYYCATDTDGRTRGQGTQVTVEP
B9: DGL499 (bispecific antibody, V domains shown)
V domain 1: EVQLVESGGGLVQAGGSLRLSCAASGLTFRNYAMAWFRQAPGKEREFVAGITWGGGLTHYVDSVKGRFTISRDNGKNTVYLQMNSLKSEDTAVYYCAGKTQGSTWYHLTPDGYDYWGQGTQVTVEP
V domain 2: B4 V domain 2
B10: DGL537 (bispecific antibody, V domains shown)
V domain 1: QVQLVESGGGLVQAGGSLRLSCLASGRTSNYFMGWFRQAPGKEREFVAAISRSGGGTWYADSVKGRFAISRDNAKNTVNLQMNSLKREDTAVYYCAADRRTGTSVYTVDEYDYWGQGTQVTVEP
V domain 2: B7 V domain 2
B11: DGL484 (bispecific antibody, V domains shown)
V domain 1: QVQLVESGGGLVQAGGSLRLSCAASARIFNSYAVAWFRQTPGKEREFVASISWSGGSTNYADSVKGRFTISRDNAKNTVFLQMNSLKPADTAVYYCAADRNYYPSVLGKYTYWGQGTQVTVEP
V domain 2: B4 V domain 2
B12: DGL527 (bispecific antibody, V domains shown)
V domain 1: EVQLVESGGGLVQPGGSLTLSCTASGFRFSDRSMGWYRQAPGKQRELVAAITVGGSTNYADSVKGRFTISRDNAKNTVYLQMNSLKPEDTALYYCNRRYPPDDYWGQGTQVTVEP
V domain 2: QVQLVESGGGLVRPGGSLRLSCAASGFTFSSNGMHWFRQAPGKGLEWVSSIGSGGTSIYYADSVKGRFTISRDNAKNTLYLQMNSLKSDDTAVYYCSKEVTGATRGQGTQVTVEP
B13: DGL462 (bispecific antibody, V domains shown)
V domain 1: EVQLVESGGGLVQPGGSLRLSCAASGFTFQNYAMSWLRKAPGEGLEWVSVINSGGGSTLYADSVKGRFTISRDNAKNTLYLQMHSLKSEDTAVYFCAKRRDDSTFGSLLYTHRGQGTQVTVEP
V domain 2: B7 V domain 2
B14: DGL599 (bispecific antibody, human IgG1, V domains shown)
V domain 1: EVQLVESGGGLVQAGGSLRLSCAASGSKFSFNAMGWYRQTPGKQRELVAIIINGDMINYADSVKGRFTISRDNAKNTMYLQMNSLKPEDTAVYYCKMTRYVYDYWGQGTQVTVEP
V domain 2: QVQLVQSGAEVKKPGASVRVSCKASGYTFTSYYIHWVRQAPGQGLEWMGIINPSGGSTSYAQKFQGRVTMTRDTSTTTVYMELSSLRSEDTAVYYCAKSNWAYAFDIWGQGTMVTVSS
B15: DGL464 (bispecific antibody, V domains shown)
V domain 1: B4 V domain 1
V domain 2: QVQLVESGGGLVQPGGSLRLSCAASGFTFSNYAMSWVRQAPGKGLEWVSAINSDGTSTSYADSVKGQFTISRDNAKNTLYLQMNSLKPEDTAVYYCTKWEGDTDSDYKFKDYWGQGTQVTVEP
B16: DGL454 (bispecific antibody, V domains shown)
V domain 1: QVQLQESGGALVQPGGSLRLSCVVSGFTSDYFAIGWFRQAPGKEREGVSCIGSSDGSTIYSDSVKGRFTISRDNAKNTVYLQMNSLKPEDTGVYYCALDRGRRTIIGYACYATMKYWGKGTPVTVEP
V domain 2: B4 V domain 2
B17: DGL441 (bispecific antibody, human IgG1, lambda)
heavy 1: not shown
heavy 2: EVQLVESGGGLVQPGGSLRLSCAASGFTFSTYDMHWVRQATGKGLEWVSLIDTAGDTYYPDSVKGRFTISRENAKNSLYLQMNSLRAGDTAVYYCAREGWGYFDYWGQGALVTVSSASTKGPSVFPLAPSSKSTSGGTAALGCLVKDYFPEPVTVSWNSGALTSGVHTFPAVLQSSGLYSLSSVVTVPSSSLGTQTYICNVNHKPSNTKVDKKVEPKSCDKTHTCPPCPAPEAAGAPSVFLFPPKPKDTLMISRTPEVTCVVVDVSHEDPEVKFNWYVDGVEVHNAKTKPREEQYNSTYRVVSVLTVLHQDWLNGKEYKCKVSNKALPAPIEKTISKAKGQPREPQVCTLPPSRDELTKNQVSLSCAVKGFYPSDIAVEWESNGQPENNYKTTPPVLDSDGSFFLVSKLTVDKSRWQQGNVFSCSVMHEALHNRFTQKSLSLSPG
light: QSALTQPPSVSGSPGQSVTISCTGTSSDVGSYNRVSWYQQPPGTAPKLMIYEVSNRPSGVPDRFSGSKSGNTASLTISGLQAEDEADYYCSLYTGSSTVVFGGGTKVTVLGQPKAAPSVTLFPPSSEELQANKATLVCLISDFYPGAVTVAWKADSSPVKAGVETTTPSKQSNNKYAASSYLSLTPEQWKSHRSYSCQVTHEGSTVEKTVAPTECS

These binders were tested against human IL-12 receptor (IL-12Rβ1 and IL-12Rβ2) on HEK-Blue IL-12 cells (human, UniProt P42701 24-662; Q99665 24-862) (assay: cell-based or functional assay).
Chain of human IL-12 receptor (IL-12Rβ1 and IL-12Rβ2) on HEK-Blue IL-12 cells (Q99665 24-862, chain 2 of 2, other chains not shown): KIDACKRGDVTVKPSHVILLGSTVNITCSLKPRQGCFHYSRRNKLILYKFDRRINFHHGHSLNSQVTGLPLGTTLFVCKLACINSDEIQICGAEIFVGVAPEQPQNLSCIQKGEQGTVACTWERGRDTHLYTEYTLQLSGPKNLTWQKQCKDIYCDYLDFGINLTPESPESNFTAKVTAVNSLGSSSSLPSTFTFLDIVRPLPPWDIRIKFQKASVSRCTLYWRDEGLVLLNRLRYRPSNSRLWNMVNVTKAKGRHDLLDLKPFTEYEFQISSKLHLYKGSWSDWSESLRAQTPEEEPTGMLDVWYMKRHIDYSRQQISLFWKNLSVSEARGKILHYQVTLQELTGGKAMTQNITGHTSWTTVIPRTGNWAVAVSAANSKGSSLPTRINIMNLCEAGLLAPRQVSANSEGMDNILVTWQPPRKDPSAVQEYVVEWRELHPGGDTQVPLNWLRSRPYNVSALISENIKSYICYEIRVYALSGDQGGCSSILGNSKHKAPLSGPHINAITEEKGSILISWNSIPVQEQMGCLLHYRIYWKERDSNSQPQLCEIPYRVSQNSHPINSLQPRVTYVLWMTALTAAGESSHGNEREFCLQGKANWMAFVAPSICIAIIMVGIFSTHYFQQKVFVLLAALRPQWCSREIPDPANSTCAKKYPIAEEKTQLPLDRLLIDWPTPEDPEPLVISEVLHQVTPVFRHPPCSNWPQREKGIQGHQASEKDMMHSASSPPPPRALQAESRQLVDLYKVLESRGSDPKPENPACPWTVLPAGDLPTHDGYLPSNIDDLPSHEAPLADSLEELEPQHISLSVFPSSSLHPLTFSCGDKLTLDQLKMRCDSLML

Binder | Max Absorbance | EC50
B1 | 0.17 | –
B2 | 0.17 | –
B3 | 0.17 | –
B4 | 0.69 | > 100 nM
B5 | 0.64 | > 100 nM
B6 | 0.59 | > 100 nM
B7 | 0.58 | 4.4e-10 M (implied)
B8 | 0.58 | > 100 nM
B9 | 0.56 | 8.1e-09 M (implied)
B10 | 0.55 | 5.9e-10 M (implied)
B11 | 0.54 | 9.7e-09 M (implied)
B12 | 0.54 | > 100 nM
B13 | 0.52 | 1.2e-09 M (implied)
B14 | 0.48 | > 100 nM
B15 | 0.47 | > 100 nM
B16 | 0.47 | > 100 nM
B17 | 0.45 | 4e-11 M (implied)
